Experimental data published in patent publication US20240029819A1, “AGENTS BINDING MODIFIED ANTIGEN PRESENTED PEPTIDES AND USE OF SAME” (Yeda Research and Development Co. Ltd., priority 2020, published 2024).
Entries after “also recorded” stand apart in the source; their conditions may differ. Where no end group is shown, it is not given here. [ ]: non-standard residue; d: D form. N(d) = deamidated Asn

Biological target: HLA-A0201 (Homo sapiens, UniProt P04439, D140Y/D185E/D98H/E176V/E277Q/G131W/G231S/I119V/I121R/I166T/I218V/L300P/L318F/N151K/N90K/P208A/P217A/Q86G/Q94H/R138H/R169H/T345S)
Experiment: ProImmune Module 2 REVEAL in-vitro MHC-peptide binding assay
Conditions: synthesized modified peptides and unmodified counterparts; score relative to positive control peptide; FIG. 4F
Method: ProImmune binding assay—ProImmune (www(dot)proimmune(dot)com) Module 2 REVEAL Binding Assay measure the yield of correctly conformed MHC-peptide complex following incubation of the recombinant MHC allele and peptide of interest using a conformational-dependent antibody in an immunoassay. Each peptide is given a score relative to the positive control peptide, which is a known T cell epitope.
To validate that the modified peptides identified with PROMISE are able to bind to HLA, the subset of modified peptides that were identified in immunopeptidomics of an HLA-A0201 cell line and that were not identified in IEDB in their unmodified form were filtered (FIG. 4D). Further, whether the difference in the detection of the modified peptides and their unmodified counterparts was due to their relative ability to bind HLA-A0201 was examined. […] Methylation of K-6 removes its positive charge and thereby alleviates electrostatic repulsion. In addition, the methyl group is nicely packed into the hydrophobic MHC groove. […] To assess the role of peptide modification in altering MHC binding 6 modified peptides and their unmodified counterparts were synthesized and their binding was examined using a binding assay (ProImmune). In these setting 4 of the synthesized modified peptides were confirmed as HLA binders.

| Substance | binding to HLA-A0201 of the modified peptide compared with its matching unmodified form |
| --- | --- |
| K(me)VMDEVAGI (KVMDEVAGI; not fully specified (residue 1); printed as K(me)VMDEVAGI) | bind the HLA-A0201 more strongly than the unmodified form |
| TLE(me)NCLLPD(me) (TLENCLLPD; not fully specified (residues 3, 9); printed as TLE(me)NCLLPD(me)) | bound the MHC only in its modified form |
| TLN(d)SLIYTL (TL[N(d)]SLIYTL) | bind more strongly in its unmodified form |
| TLIESK(me)LPV (TLIESKLPV; not fully specified (residue 6); printed as TLIESK(me)LPV) | bind more strongly in its modified form; also recorded: bind the HLA-A0201 more strongly than the unmodified form |
